Experimental data from patent US20060115428A1 (MorphoSys, published 2006).
Residue numbers refer to the chain shown, from its start. Where two headings read alike, the source gives them in different places. Each block holds one molecule with its values, some of them ahead of it.

Assays:
[1] = molecular target: recombinant fibronectin domain ED-B (His)6 (human) (UniProt P02751); experiment: SPR (BIAcore), ED-B immobilised on chip
[2] = molecular target: recombinant fibronectin domain ED-B (His)6 (human) (UniProt P02751); experiment: SPR (BIAcore), ED-B immobilised on chip; remark: listed apart in the source
[3] = molecular target: recombinant fibronectin domain ED-B (His)6 (human) (UniProt P02751); experiment: SPR (BIAcore), ED-B immobilised on chip; remark: listed apart in the source
[4] = molecular target: T1, recombinant fibronectin domain ED-B (His)6 (human, UniProt P02751 1266-1356); experiment: SPR (BIAcore); ratio to parent clone MOR02715
T1 construct: domain: ED-B; Produced by standard procedures; immobilised on ELISA plates or on the BIAcore chip; also called recombinant ED-B; human ED-B
Procedure: (§1) F1-Chips (Biacore, Sweden) were coated with about 200 RU of ED-B (30 μg/ml, 10 mmol of acetate buffer, pH 4.0) and reference flow cells with a corresponding amount of human serum albumin (20 μg/ml, 10 mmol of acetate buffer, pH 4.5) with use of standard EDC-NHS-amine-coupling chemistry. The antigen density was reduced to about 100 RU for the Fab characterization of the second maturation. The regeneration was carried out with 10 mmol of HCl. All kinetic measurements were carried out in PBS buffer (136 mmol of NaCl, 2.7 mmol of KCl, 10 mmol of Na₂HPO₄, 1.76 mmol of KH₂PO₄, pH 7.4) with a flow rate of 20 μl/minute with use of a Fab concentration range of 1.5-500 nmol. The injection period was 1 minute in each case. All sensograms were evaluated with use of BIA evaluation software 3.1.

[5] = molecular target: T1, recombinant fibronectin domain ED-B …; experiment: SPR (BIAcore), ED-B immobilised on chip, Fab in flow
Procedure: as §1

kon [1]: 675000 M⁻¹ s⁻¹ | koff [2]: 0.0015 s⁻¹ | Kd [3]: 2.4 nM | koff [3]: 0.00149 s⁻¹ | kon [3]: 660000 M⁻¹ s⁻¹
Molecule: AP39, covalent dimer of the anti-ED-B scFv antibody L19

x-Fold Improvement Relative to the Parent Clone, KD [4]: 15.8 fold | x-Fold Improvement Relative to the Parent Clone, Koff [4]: 4.2 fold | x-Fold Improvement Relative to the Parent Clone, Kon [4]: 4 fold | Kd [5]: 3.4 nM | koff [5]: 0.011 s⁻¹ | kon [5]: 3.5e+06 M⁻¹ s⁻¹
B1: MOR03062 (Fab, V domains shown)
VH: QVQLVESGGGLVQPGGSLRLSCAASGFTFSSYGMHWVRQAPGKGLEWVSVISSSGSYIYYADSVKGRFTISRDNSKNTLYLQMNSLRAEDTAVYYCARNKVGFDVWGQGTLVTVSS
VL: DIALTQPASVSGSPGQSITISCTGTSSDGGGYNTVSWYQQHPGKAPKLMIYYVHKRPSGVSNRFSGSKSGNTASLTISGLQAEDEADYYCQSWDLSVHQVVFGGGTKLTVLG
notes: Fab, L-CDR3 derivative of MOR02715

x-Fold Improvement Relative to the Parent Clone, KD [4]: 5.3 fold | x-Fold Improvement Relative to the Parent Clone, Koff [4]: 3.5 fold | x-Fold Improvement Relative to the Parent Clone, Kon [4]: 1.7 fold | Kd [5]: 10 nM | koff [5]: 0.014 s⁻¹ | kon [5]: 1.5e+06 M⁻¹ s⁻¹
B2: MOR03064 (Fab, V domains shown)
VH: B1 VH
VL: B1 VL with S96L, V97A, H98P, Q99S
notes: as for B1
